The values that follow are results of earlier work, collected in paper PMC3720604.

As usually defined, the Kd is a measure of binding affinity in units of concentration.

The target of the series is CK2β (Homo sapiens) (UniProt P67870).
Sequence of UniProt P67870 (P67870 2-215): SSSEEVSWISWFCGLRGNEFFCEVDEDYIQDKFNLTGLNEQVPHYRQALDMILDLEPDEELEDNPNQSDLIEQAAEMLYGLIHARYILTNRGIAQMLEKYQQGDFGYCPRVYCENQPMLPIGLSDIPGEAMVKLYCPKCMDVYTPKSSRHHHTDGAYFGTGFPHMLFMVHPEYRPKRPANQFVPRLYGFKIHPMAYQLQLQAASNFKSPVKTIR

Turning to CK2α′ (from UniProt P19784), the Kd was 45.5 nM.
